Laboratory results from article PMC11997982.

Tests used:
[1] = target: T1, GST-RBD WT (Influenza A virus A/Brevig …, UniProt Q99AU3 1-85); assay: EMSA (fEMSA); […], pH 8.0, 1 h at room temperature; […]; conditions: protein: recombinant; tags: GST; chain copies: 2; label: 5'-FAM (FITC) on both strands; blunt
[2] = target: T2, His-GST-ED WT (Influenza A virus A/Brevig …, UniProt Q99AU3 86-230); assay: as above; conditions: protein: recombinant; tags: N-term 10xHis-GST; chain copies: 3; label: 5'-FAM (FITC) on both strands; blunt
T2 sequence (Q99AU3 86-230): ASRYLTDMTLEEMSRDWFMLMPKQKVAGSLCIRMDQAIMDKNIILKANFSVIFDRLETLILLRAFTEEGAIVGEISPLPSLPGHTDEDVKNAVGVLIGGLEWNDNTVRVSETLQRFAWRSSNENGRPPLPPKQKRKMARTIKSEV

[3] = target: T3, Udorn His-GST-ED WT (Influenza A virus A/Udorn/307/1972, UniProt P03495 86-237); assay: as above; conditions: protein: recombinant; tags: N-term 10xHis-GST; label: 5'-FAM (FITC) on both strands; blunt
T3 sequence (P03495 86-237): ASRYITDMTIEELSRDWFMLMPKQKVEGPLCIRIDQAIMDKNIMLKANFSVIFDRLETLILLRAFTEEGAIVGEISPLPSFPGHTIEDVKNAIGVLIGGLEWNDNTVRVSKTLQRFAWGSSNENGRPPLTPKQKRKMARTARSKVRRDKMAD

[4] = target: T4, His-GST-RBD WT (Influenza A virus A/Brevig …, UniProt Q99AU3 1-85); assay: as above; conditions: protein: recombinant; tags: N-term 10xHis-GST; chain copies: 2; label: 5'-FAM (FITC) on both strands; blunt
T4 sequence (Q99AU3 1-85): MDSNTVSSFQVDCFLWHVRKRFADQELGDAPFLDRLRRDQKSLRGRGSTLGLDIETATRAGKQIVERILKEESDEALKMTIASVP

[5] = target: T5, His-RBD WT (Influenza A virus A/Brevig …, UniProt Q99AU3 1-85); assay: as above; conditions: protein: recombinant; tags: N-term 10xHis; chain copies: 2; label: 5'-FAM (FITC) on both strands; blunt
T5 sequence (Q99AU3 1-85): as above

[6] = target: T1, GST-RBD WT; assay: fluorescence polarization; […], pH 8.0, 1 h at room temperature; […]; conditions: protein: recombinant; tags: GST; chain copies: 2; label: 5'-FAM (FITC) on both strands; blunt
[7] = target: T2, His-GST-ED WT; assay: as above; conditions: protein: recombinant; tags: N-term 10xHis-GST; chain copies: 3; label: 5'-FAM (FITC) on both strands; blunt
[8] = target: T3, Udorn His-GST-ED WT; assay: as above; conditions: protein: recombinant; tags: N-term 10xHis-GST; label: 5'-FAM (FITC) on both strands; blunt
[9] = target: T4, His-GST-RBD WT; assay: as above; conditions: protein: recombinant; tags: N-term 10xHis-GST; chain copies: 2; label: 5'-FAM (FITC) on both strands; blunt
[10] = target: T5, His-RBD WT; assay: fluorescence polarization; biphasic, first transition; […], pH 8.0, 1 h at room temperature; […]; conditions: protein: recombinant; tags: N-term 10xHis; chain copies: 2; label: 5'-FAM (FITC) on both strands; blunt
[11] = target: T5, His-RBD WT; assay: fluorescence polarization; biphasic, second transition; […], pH 8.0, 1 h at room temperature; […]; conditions: protein: recombinant; tags: N-term 10xHis; chain copies: 2; label: 5'-FAM (FITC) on both strands; blunt
[12] = target: T3, Udorn His-GST-ED WT; assay: fluorescence polarization; protein prep B, A260/280 0.85; […], pH 8.0, 1 h at room temperature; […]; conditions: protein: recombinant; tags: N-term 10xHis-GST; label: 5'-FAM (FITC) on both strands; blunt

T1 sequence (Q99AU3 1-85): as above

B1: FAM-dsRNA 16 bp (dsRNA)
RNA 1: CCAUCCUCUACAGGCG
RNA 2: CGCCUGUAGAGGAUGG
- Kd [1]: 100 ± 32 nM
- Kd [2]: 3500 ± 800 nM
- Kd [3]: 170 ± 35 nM
- Kd [4]: 180 ± 42 nM
- Kd [5]: 55 ± 16 nM
- Kd [6]: 76 ± 5 nM
- Kd [7]: 1900 ± 250 nM
- Kd [8]: 180 ± 21 nM
- Kd [9]: 125 ± 9 nM
- Kd [10]: 83 ± 11 nM
- Kd [11]: 2160 ± 460 nM
- Kd [12]: 196 ± 23 nM
